In the supplement of paper PMC7877785:
± gives the uncertainty stated by the source.

Assay: self-splicing fitness, log relative to wild type (ln ratio); higher = more splicing; Tetrahymena group I intron in knt gene, E. coli kanamycin selection, DiMSum; sequences stand for … in CUCUCU…GGAGGGAAAAGUUAUCAGGCAUGCACCUGGUAGCUAGUCUUUAAACCAAUAGAUUGCAUCGGUUUAAAAGGCAAGACCGUCAAAUUGCGGGAAAGGGGUCAACAGCCGUUCAGUACCAAGUCUCAGGGGAAACUUUGAGAUGGCCUUGCAAAGGGUAUGGUAAUAAGCUGACGGACAUGGUCCUAACCACGCAGCCAAGUCCUAAGUCAACAGAUCUUCUGUUGAUAUGGAUGCAGUUCACAGACUAAAUGUCGGUCGGGGAAGAUGUAUUCUUCUCAUAAGAUAUAGUCGGACCUCUCCUUAAUGGGAGCUAGCGGAUGAAGUGAUGCAACACUGGAGCCGCUGGGAACUAAUUUGUAUGCGAAAGUAUAUUGAUUAGUUUUGGAGUACUCGUGGUCG
In short: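 Library with all eight P1ex-region intron nucleotides randomised, intron inside the knt kanamycin-resistance gene on pET-22b(+), in E. coli BL21(DE3). Cells grew overnight at 37°C or 30°C on LB agar with or without 25 μg/mL kanamycin (plus 100 μg/mL carbenicillin, 50 μM IPTG, 0.2% rhamnose), in six replicate transformations. Pooled colonies were amplicon-sequenced on Illumina HiSeq 2500. DiMSum fitness is the error-weighted combination of wild-type-normalised replicate fold changes, kanamycin versus none.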

Row | Sequence | self-splicing fitness (ln) (30 °C) | self-splicing fitness (ln) (37 °C)
1 | GGACAGCAAUAUUACGCGGG | -2.52 ± 0.1 | -0.903 ± 0.091
2 | CAGCAGCAAUAUUACGACUC | -0.922 ± 0.091 | -0.00599 ± 0.14
3 | UGGUAGCAAUAUUACGCUUA | -0.955 ± 0.18 | -0.553 ± 0.22
4 | GUGCAGCAAUAUUACGGCGU | -1.58 ± 0.096 | -1.93 ± 0.17
5 | CCUAAGCAAUAUUACGACCU | -3.17 ± 0.35 | -2.34 ± 0.31
6 | UUUCAGCAAUAUUACGGACG | -0.348 ± 0.18 | 0.598 ± 0.23
7 | AGGAAGCAAUAUUACGUUAU | -3.44 ± 0.18 | -1.6 ± 0.17
8 | CGAUAGCAAUAUUACGCACC | -2.55 ± 0.15 | -1.09 ± 0.16
9 | UUUUAGCAAUAUUACGUUUG | -1.6 ± 0.082 | -0.497 ± 0.12
10 | GUAAAGCAAUAUUACGGACA | -0.403 ± 0.085 | 0.623 ± 0.12
11 | UAACAGCAAUAUUACGGUCU | -1.5 ± 0.068 | -0.783 ± 0.075
12 | CUGUAGCAAUAUUACGUAAC | -3.09 ± 0.46 | -2.24 ± 0.5
13 | AUGAAGCAAUAUUACGGACA | -0.277 ± 0.077 | 0.5 ± 0.11
14 | CUGUAGCAAUAUUACGAGUG | -0.807 ± 0.07 | 0.314 ± 0.11
15 | UCGCAGCAAUAUUACGAAGG | -1.85 ± 0.096 | -0.846 ± 0.12
16 | CGAUAGCAAUAUUACGUACG | -1.83 ± 0.097 | -1.05 ± 0.1
17 | ACGCAGCAAUAUUACGAGCU | -2.76 ± 0.12 | -1.18 ± 0.12
18 | CCGAAGCAAUAUUACGUAUC | -2.92 ± 0.24 | -3.03 ± 0.25
19 | UACUAGCAAUAUUACGAUAA | -1.05 ± 0.085 | -0.513 ± 0.093
20 | GUCAAGCAAUAUUACGAAUC | -2.16 ± 0.11 | -0.596 ± 0.12
21 | AAGAAGCAAUAUUACGGAUC | -1.23 ± 0.11 | 0.142 ± 0.17
22 | GUCAAGCAAUAUUACGUUGG | -4.53 ± 0.31 | -3.51 ± 0.3
23 | CUAAAGCAAUAUUACGUACU | -3.28 ± 0.17 | -2.57 ± 0.22
24 | AAUUAGCAAUAUUACGCAAC | -3 ± 0.4 | -1.93 ± 0.24
25 | UACGAGCAAUAUUACGCGCG | -1.35 ± 0.13 | -1.14 ± 0.18

Row | Sequence | self-splicing fitness (ln) (30 °C) | self-splicing fitness (ln) (37 °C)
26 | UAAUAGCAAUAUUACGUUCA | -0.833 ± 0.098 | -0.14 ± 0.1
27 | UAACAGCAAUAUUACGAUCG | -0.667 ± 0.07 | -0.00548 ± 0.098
28 | UACUAGCAAUAUUACGCAUG | -1.72 ± 0.099 | -0.591 ± 0.12
29 | AGUAAGCAAUAUUACGUUGU | -3 ± 0.099 | -1.97 ± 0.12
30 | CGAGAGCAAUAUUACGCUAG | – | -2.77 ± 0.4
31 | AGAGAGCAAUAUUACGGCUC | -3.01 ± 0.27 | -1.37 ± 0.25
32 | GCUCAGCAAUAUUACGUUCU | -0.649 ± 0.074 | -0.195 ± 0.09
33 | GCCCAGCAAUAUUACGUCGG | -3.13 ± 0.13 | -3.08 ± 0.2
34 | UGUGAGCAAUAUUACGGCAU | -3.25 ± 0.28 | -1.53 ± 0.15
35 | GAGUAGCAAUAUUACGAGGA | – | -1.81 ± 0.4
36 | GGCAAGCAAUAUUACGCCAU | -2.4 ± 0.39 | -1.39 ± 0.29
37 | CGAUAGCAAUAUUACGAACU | -0.913 ± 0.097 | -0.465 ± 0.13
38 | AACCAGCAAUAUUACGCCGG | -3.39 ± 0.17 | -2.09 ± 0.17
39 | AACUAGCAAUAUUACGUCGU | -1.8 ± 0.055 | -1.03 ± 0.067
40 | AAGAAGCAAUAUUACGCGGG | -2.95 ± 0.2 | -0.684 ± 0.11
41 | GGGGAGCAAUAUUACGCCAA | – | -0.647 ± 0.44
42 | AGCAAGCAAUAUUACGGCUG | -0.939 ± 0.077 | -1.4 ± 0.13
43 | GGAAAGCAAUAUUACGUACC | -2.13 ± 0.46 | -2.35 ± 0.49
44 | UGGGAGCAAUAUUACGGUGU | -2.52 ± 0.45 | -1.9 ± 0.37
45 | UCUGAGCAAUAUUACGCAAU | -2.13 ± 0.16 | -2.97 ± 0.21
46 | CAUUAGCAAUAUUACGAUUG | -1.49 ± 0.077 | -0.759 ± 0.11
47 | CUCUAGCAAUAUUACGGCAA | -2.38 ± 0.2 | –
48 | GAUCAGCAAUAUUACGCAUU | -2.36 ± 0.26 | -1.05 ± 0.32
49 | GCGUAGCAAUAUUACGAGUG | -1.78 ± 0.15 | -1.19 ± 0.21
50 | ACGAAGCAAUAUUACGUUUG | -1.27 ± 0.071 | -1.16 ± 0.11

Row | Sequence | self-splicing fitness (ln) (30 °C) | self-splicing fitness (ln) (37 °C)
51 | GUGCAGCAAUAUUACGUACU | -2.7 ± 0.39 | -0.869 ± 0.38
52 | ACGCAGCAAUAUUACGUUUU | -3.43 ± 0.12 | -2.11 ± 0.11
53 | GGCUAGCAAUAUUACGCUUC | -2.51 ± 0.21 | -1.61 ± 0.26
54 | ACCGAGCAAUAUUACGAUGG | -2.27 ± 0.094 | -1.39 ± 0.11
55 | CAGAAGCAAUAUUACGUGAU | -2.97 ± 0.14 | -1.26 ± 0.11
56 | CUUAAGCAAUAUUACGGCAU | -3.68 ± 0.23 | -3.67 ± 0.34
57 | GGGUAGCAAUAUUACGGCUU | -0.41 ± 0.11 | 0.232 ± 0.12
58 | UUUCAGCAAUAUUACGAAGA | -0.653 ± 0.24 | -0.0649 ± 0.25
59 | CAGUAGCAAUAUUACGUUCU | – | -1.41 ± 0.2
60 | UGGUAGCAAUAUUACGAACU | -0.279 ± 0.12 | 0.0176 ± 0.18
61 | AACUAGCAAUAUUACGAUAU | -1.26 ± 0.077 | -0.429 ± 0.11
62 | ACGCAGCAAUAUUACGGGUU | -2.19 ± 0.069 | -1.92 ± 0.092
63 | GCUCAGCAAUAUUACGGCGC | -1.44 ± 0.085 | -0.248 ± 0.12
64 | UUUAAGCAAUAUUACGAGAC | -2.33 ± 0.48 | -2.63 ± 0.33
65 | AAGAAGCAAUAUUACGCGCA | 0.0488 ± 0.077 | 0.115 ± 0.1
66 | ACAAAGCAAUAUUACGAAGA | -3.03 ± 0.42 | -0.86 ± 0.18
67 | CAAUAGCAAUAUUACGUCGA | -2.82 ± 0.21 | -2.96 ± 0.28
68 | CGAAAGCAAUAUUACGGUGC | -3.09 ± 0.17 | -2.65 ± 0.21
69 | CGAGAGCAAUAUUACGGCGU | -2.46 ± 0.28 | -1.2 ± 0.19
70 | ACCCAGCAAUAUUACGCCGG | -3.06 ± 0.16 | -2.96 ± 0.26
71 | GUAGAGCAAUAUUACGUUAU | -1.68 ± 0.086 | -0.698 ± 0.091
72 | UGCUAGCAAUAUUACGGCGA | -0.369 ± 0.22 | -0.302 ± 0.23
73 | UGGCAGCAAUAUUACGACGC | – | -1.72 ± 0.24
74 | GAAAAGCAAUAUUACGGCUC | -0.401 ± 0.085 | 0.342 ± 0.12
75 | AAAGAGCAAUAUUACGCACG | -2.69 ± 0.23 | -2.22 ± 0.26

Row | Sequence | self-splicing fitness (ln) (30 °C) | self-splicing fitness (ln) (37 °C)
76 | UCGCAGCAAUAUUACGUUAC | -3.36 ± 0.36 | -2.95 ± 0.25
77 | GAGCAGCAAUAUUACGUUCU | – | -2.48 ± 0.26
78 | AUACAGCAAUAUUACGCUGC | -2.38 ± 0.18 | -3.02 ± 0.29
79 | AUUUAGCAAUAUUACGGCCA | -0.814 ± 0.21 | -0.925 ± 0.23
80 | GACCAGCAAUAUUACGAUCA | -1.38 ± 0.1 | -1.1 ± 0.12
81 | GUUGAGCAAUAUUACGUCAU | -2.26 ± 0.21 | -2.44 ± 0.38
82 | CGUUAGCAAUAUUACGUCUG | -0.914 ± 0.11 | 0.164 ± 0.13
83 | GUUGAGCAAUAUUACGAUCG | -1.18 ± 0.39 | –
84 | UUAUAGCAAUAUUACGCAGC | -3.44 ± 0.31 | -2.49 ± 0.45
85 | GAAAAGCAAUAUUACGCUAG | -1.8 ± 0.076 | -1.57 ± 0.099
86 | UCCCAGCAAUAUUACGCUUG | -3.31 ± 0.15 | -2.4 ± 0.19
87 | GAGAAGCAAUAUUACGGAGG | – | -2.47 ± 0.21
88 | UAGGAGCAAUAUUACGGGGG | – | -2.74 ± 0.41
89 | GAGGAGCAAUAUUACGGGGU | -4.47 ± 0.34 | -2.64 ± 0.22
90 | GGAAAGCAAUAUUACGGAUA | -2.59 ± 0.21 | -1.55 ± 0.19
91 | CCUGAGCAAUAUUACGAUGC | -4.16 ± 0.28 | -2.75 ± 0.21
92 | AGAUAGCAAUAUUACGGGCA | -1.12 ± 0.13 | 0.0415 ± 0.12
93 | GCUAAGCAAUAUUACGGGAC | -2.81 ± 0.13 | -1.53 ± 0.14
94 | AUGUAGCAAUAUUACGAGCC | – | -1.05 ± 0.49
95 | AGAUAGCAAUAUUACGUUGA | -3.51 ± 0.24 | -1.5 ± 0.14
96 | UAACAGCAAUAUUACGCGAU | -3.97 ± 0.32 | -2.36 ± 0.23
97 | UAUCAGCAAUAUUACGUAUC | -2.11 ± 0.08 | -0.822 ± 0.096
98 | GGGGAGCAAUAUUACGCCAU | – | -1.58 ± 0.32
99 | UUAUAGCAAUAUUACGCUUA | -1.92 ± 0.33 | -1.09 ± 0.26
